Patent US20250043302A1, “MUTATED HYDROXYPHENYLPYRUVATE DIOXYGENASE POLYPEPTIDE, AND CODING GENE AND USE THEREOF” (BEIJING DABEINONG BIOTECHNOLOGY CO., LTD., priority 2021, published 2025)

Experiments:
[1] = tested on: Arabidopsis thaliana T1 plants; assay: Isoxaflutole tolerance of transgenic Arabidopsis thaliana T1 plants (spray, bleached leaf area grade, damage score); format: in vivo; details: for Classification and statistics of the grade of pesticide damage: Grade 0 / Classification and statistics of the grade of pesticide damage: Grade 1 / Classification and statistics of the grade of pesticide damage: Grade 2 / Classification and statistics of the grade of pesticide damage: Grade 3: number of plants;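 on Scores: Weighted damage index from 0 to 100 where higher means more damage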
Summary of the method: (§1)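 Damage was assessed by bleaching grade (0 none; 1 <50%; 2 >50%; 3 100% of leaf area) one week after spraying. Sprays on 18-day-old T1 and wild-type plants used field-rate multiples: topramezone 25–200, isoxaflutole 35–280, mesotrione 52.5–420 g ai/ha.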

[2] = tested on: Arabidopsis thaliana T1 plants; assay: Mesotrione tolerance of transgenic Arabidopsis thaliana T1 plants (spray, bleached leaf area grade, damage score); format: in vivo; design: Scores: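 damage score 0-100 computed as Σ(N×S)/(T×M)×100 over grades 0-3 with higher meaning more damage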; details: for Resistance evaluation / Classification and statistics of the grade of pesticide damage: Grade 0 / Classification and statistics of the grade of pesticide damage: Grade 1 / Classification and statistics of the grade of pesticide damage: Grade 2 / Classification and statistics of the grade of pesticide damage: Grade 3 / Scores: 7 DAT, Table 3; for Classification and statistics of the grade of pesticide damage: Grade 0 / Classification and statistics of the grade of pesticide damage: Grade 1 / Classification and statistics of the grade of pesticide damage: Grade 2 / Classification and statistics of the grade of pesticide damage: Grade 3: number of plants; for Scores: pesticide damage score 0-100
Summary of the method: as §1

[3] = isoxaflutole 280 g ai/ha (4x field concentration), Arabidopsis thaliana T1 plants
[4] = isoxaflutole 280 g ai/ha (4x field concentration), Arabidopsis thaliana T1 plants, 16 plants
[5] = isoxaflutole 280 g ai/ha (4×), 7 DAT, Table 2
[6] = isoxaflutole 140 g ai/ha (2×), 7 DAT, Table 2
[7] = mesotrione 210 g ai/ha (two-fold field concentration)

B1: AsHPPDm-F383W-02: nucleotide sequence encoding Avena sativa HPPD with F383W; vector DBN11729 (nucleic acid)
DNA: ATGCCACCTACTCCAGCTACAGCTACTGGTGCTGCTGCTGCTGCCGTTACTCCTGAGCACGCTGCCAGGTCATTCCCCAGGGTGGTTCGCGTGAACCCCAGATCTGATAGGTTCCCAGTTCTGAGCTTCCACCATGTTGAGCTGTGGTGCGCTGATGCTGCTTCTGCTGCTGGCAGGTTCTCTTTCGCTCTTGGTGCTCCACTCGCTGCTAGATCTGATCTGTCTACAGGAAATAGCGCTCATGCCTCACTCCTGCTTCGCTCAGGTGCTTTGGCCTTCCTCTTCACCGCTCCATATGCTCCCCCACCTCAGGAGGCTGCTACTGCTGCTGCTACAGCCTCCATTCCAAGCTTCTCAGCTGATGCCGCTAGAACCTTCGCTGCTGCTCATGGACTTGCCGTGAGGTCTGTTGGTGTTCGCGTGGCTGATGCTGCTGAGGCTTTCAGAGTTTCCGTTGCCGGCGGAGCTAGGCCAGCTTTCGCTCCTGCTGATTTGGGACATGGTTTCGGCCTGGCTGAGGTTGAGCTTTACGGTGACGTGGTTCTCCGCTTCGTGTCTTACCCAGATGAGACTGACCTGCCTTTCCTTCCCGGCTTCGAGAGAGTTTCCTCTCCTGGTGCCGTGGATTACGGCCTGACAAGGTTCGACCACGTGGTTGGAAACGTTCCCGAGATGGCTCCAGTGATCGATTACATGAAGGGCTTCCTTGGATTCCATGAGTTCGCCGAGTTCACTGCTGAGGACGTGGGAACCACTGAGTCCGGTTTGAACTCTGTGGTTCTCGCCAACAATTCTGAGGCTGTTTTGCTCCCTCTGAATGAGCCTGTGCATGGAACCAAGAGGAGAAGCCAGATTCAAACTTACCTGGAGTACCACGGTGGCCCTGGAGTTCAGCATATCGCCCTTGCTTCTAATGATGTGTTGCGCACACTCAGAGAGATGCGCGCCAGAACCCCCATGGGAGGTTTCGAGTTCATGGCCCCACCACAGGCTAAGTACTACGAGGGCGTTAGAAGGATTGCTGGAGACGTGTTGAGCGAGGAGCAGATCAAGGAGTGCCAAGAGCTGGGTGTTCTTGTGGATAGGGATGACCAGGGCGTTCTGCTTCAAATTTTCACTAAGCCAGTGGGCGACCGCCCTACATTCTGGCTTGAGATGATTCAAAGAATCGGCTGCATGGAGAAGGATGAGGTTGGACAGGAGTACCAAAAGGGCGGATGCGGTGGCTTCGGAAAGGGTAACTTCAGCGAGTTGTTCAAGTCAATCGAGGACTACGAGAAGAGCCTCGAGGTGAAGCAGTCAGTGGTTGCCCAAAAGTCCTGA
modifications: AsHPPDm-F383W-02 Nucleotide Sequence
notes: vector DBN11729
[1]; [3]
  Resistance evaluation: Poorly resistant
  Scores: 42
[1]; [4]
  Grade 0 (classification and statistics of the grade of pesticide damage; number of plants): 4
  Grade 1 (classification and statistics of the grade of pesticide damage; number of plants): 4
  Grade 2 (classification and statistics of the grade of pesticide damage; number of plants): 8
  Grade 3 (classification and statistics of the grade of pesticide damage; number of plants): 0
[1]; [5]
  Resistance evaluation: poorly resistant (poorly resistant plants (scores 34-67))
  Classification and statistics of the grade of pesticide damage: Grade 0: 4
  Classification and statistics of the grade of pesticide damage: Grade 1: 4
  Classification and statistics of the grade of pesticide damage: Grade 2: 8
  Classification and statistics of the grade of pesticide damage: Grade 3: 0
[1]; isoxaflutole at four-fold field concentration
  tolerance to isoxaflutole (resistance class): poorly-resistant
[1]; isoxaflutole at two-fold field concentration
  tolerance to isoxaflutole (resistance class): moderately-resistant
[1]; [6]
  Classification and statistics of the grade of pesticide damage: Grade 0: 6
  Classification and statistics of the grade of pesticide damage: Grade 1: 10
  Classification and statistics of the grade of pesticide damage: Grade 2: 0
  Classification and statistics of the grade of pesticide damage: Grade 3: 0
[1]; pesticide damage score 0-100, isoxaflutole 140 g ai/ha (2×), 7 DAT, Table 2
  Scores: 21
[1]; pesticide damage score 0-100, isoxaflutole 280 g ai/ha (4×), 7 DAT, Table 2
  Scores: 42
[2]; in vivo
  tolerance to mesotrione (in words): different degrees of tolerance
[2]; [7]
  Resistance evaluation: moderately
  Classification and statistics of the grade of pesticide damage: Grade 0: 4
  Classification and statistics of the grade of pesticide damage: Grade 1: 10
  Classification and statistics of the grade of pesticide damage: Grade 2: 1
  Classification and statistics of the grade of pesticide damage: Grade 3: 1
  Scores: 31
[2]; mesotrione 420 g ai/ha (4×)
  Resistance evaluation: poorly resistant (poorly resistant plants (scores 34-67))
  Classification and statistics of the grade of pesticide damage: Grade 0: 0
  Classification and statistics of the grade of pesticide damage: Grade 1: 2
  Classification and statistics of the grade of pesticide damage: Grade 2: 14
  Classification and statistics of the grade of pesticide damage: Grade 3: 0
  Scores: 63
[2]; mesotrione at four-fold field concentration
  tolerance to mesotrione (resistance class): poorly-resistant
[2]; mesotrione at two-fold field concentration
  tolerance to mesotrione (resistance class): moderately-resistant
